T1: MMP-26 catalytic domain, tagged with hexa-histidine (human, UniProt Q9NRE1 90-261)
T1 construct: the forward primer adds Met-Ala before it; also called MMP-26 target protein; Matrilysin-2; not shown: Also any N-terminal residues added by the forward primer (Met-Ala according to our card; the primers were not visible to me)
T1 sequence: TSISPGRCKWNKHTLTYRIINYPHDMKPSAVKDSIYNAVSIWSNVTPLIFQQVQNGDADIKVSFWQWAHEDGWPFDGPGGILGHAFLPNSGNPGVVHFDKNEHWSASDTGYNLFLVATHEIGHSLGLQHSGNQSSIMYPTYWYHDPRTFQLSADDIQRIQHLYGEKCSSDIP


Legend:
MMP-3 = target: T2, MMP-3 (UniProt P08254 100-477, limits assumed); assay: cross-reactivity ELISA on coated MMP
T2 construct: also called stromelysin-1
T2 sequence (P08254 100-477 limits assumed): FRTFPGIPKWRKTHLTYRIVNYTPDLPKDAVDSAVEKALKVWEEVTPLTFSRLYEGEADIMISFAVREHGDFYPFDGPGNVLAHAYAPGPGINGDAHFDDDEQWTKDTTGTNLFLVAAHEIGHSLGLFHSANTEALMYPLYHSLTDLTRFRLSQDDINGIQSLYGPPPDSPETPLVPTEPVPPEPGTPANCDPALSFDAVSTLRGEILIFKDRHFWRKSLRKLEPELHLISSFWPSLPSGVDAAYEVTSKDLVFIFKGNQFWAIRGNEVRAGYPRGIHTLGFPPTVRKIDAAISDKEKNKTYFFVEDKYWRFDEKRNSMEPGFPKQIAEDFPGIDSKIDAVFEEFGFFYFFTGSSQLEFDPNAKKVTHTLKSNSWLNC
Method: (§1) Twenty-one of the reformatted MMP-26 antibodies were tested for MMP cross reactivity by ELISA analysis. MMP-3, MMP-7, MMP-9, and MMP-12 were coated onto Immulon 2 HB 96-well plates at a concentration of 1 μg/ml for 1 hour at 37° C. The plates were blocked with PBS-T containing 5% (w/v) nonfat dry milk for thirty minutes and subsequently washed with PBS-T. Each antibody was tested for reactivity to all of the above mentioned MMPs at a concentration of 2 μg/ml with an incubation time of 1 hour. Bound antibody was detected with an HRP-conjugated anti-human secondary antibody (Table 3, NT=not tested.).

MMP-9 = target: T3, MMP-9 (UniProt P14780 107-707, limits assumed); assay: cross-reactivity ELISA on coated MMP
T3 construct: also called gelatinase
T3 sequence (P14780 107-707 limits assumed): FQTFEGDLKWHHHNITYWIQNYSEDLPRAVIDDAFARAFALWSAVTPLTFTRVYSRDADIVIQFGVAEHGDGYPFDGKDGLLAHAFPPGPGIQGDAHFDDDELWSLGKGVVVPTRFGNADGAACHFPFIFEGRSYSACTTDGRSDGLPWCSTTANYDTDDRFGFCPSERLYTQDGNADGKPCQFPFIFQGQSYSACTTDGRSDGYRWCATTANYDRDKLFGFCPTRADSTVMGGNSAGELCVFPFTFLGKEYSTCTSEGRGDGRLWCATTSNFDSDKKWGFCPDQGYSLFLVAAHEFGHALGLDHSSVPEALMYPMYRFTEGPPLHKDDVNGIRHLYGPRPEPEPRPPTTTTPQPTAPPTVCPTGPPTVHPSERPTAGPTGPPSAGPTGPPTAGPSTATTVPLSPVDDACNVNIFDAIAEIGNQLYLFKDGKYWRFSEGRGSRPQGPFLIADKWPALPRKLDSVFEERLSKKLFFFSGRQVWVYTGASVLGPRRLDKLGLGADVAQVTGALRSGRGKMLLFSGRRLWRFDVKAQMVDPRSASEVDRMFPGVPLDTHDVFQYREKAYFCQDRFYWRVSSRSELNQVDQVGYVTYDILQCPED
Method: as §1

[1] = target: T1, MMP-26 catalytic domain, tagged with …; assay: bead-based ELISA, MMP-26 on nickel beads, IgG4 culture supernatant
Method: Reformatted and expressed full-length MMP-26 binding IgG4 antibodies were tested for specificity in a bead-based ELISA. Approximately 1.25 μg of MMP-26 protein was bound to nickel-coated magnetic beads (Novagen) which had been pre-blocked with phosphate buffered saline containing 5% (w/v) nonfat dry milk and 0.05% (v/v) Tween-20. The beads were washed in phosphate buffered saline containing 0.05% (v/v) Tween-20 (PBS-T) and 100 uls of unpurified cell culture supernatant containing transiently produced MMP-26-binding antibodies was added and incubated on a rotator for sixty minutes. The beads were washed with PBS-T and MMP-26-binding antibodies were detected with an HRP-conjugated anti-human secondary antibody. Data is expressed in fold over background where background consists of beads, blocking agent, and culture supernatant containing target antibody (Table 2; in this table, Results shown as fold over background (F>B) where background consists of beads, blocking agent, and culture supernatant).

Row | Binder | binding result (MMP-3) | binding result (MMP-9) | F > B (fold over background) [1]
1 | C04 (antibody, human IgG4, V domains shown, whole human IgG4) VH: EVQLLESGGGLVQPGGSLRLSCAASGFTFSMYFMVWVRQAPGKGLEWVSWIGSSGGETPYADSVKGRFTISRDNSKNTLYLQMNSLRAEDTAVYYCARGYSSGWYVMGDYWGQGTLVTVSS VL: QSALTQPPSASGTPGQRVTISCSGTSSNIGSHYVFWYQQLPGTAPKLLIHRNDERPSGVPDRFSGSKSGTSASLAISGLQSEDEADYYCATWDDNLNGPVFGGGTKLT | no binding (tested: 2 µg/ml) | no binding (tested: 2 µg/ml) | 2.9 fold over background
2 | C06 (antibody, human IgG4, V domains shown, whole human IgG4) VH: EVQLLESGGGLVQPGGSLRLSCAASGFTFSFYFMFWVRQAPGKGLEWVSYIGPSGGPTNYADSVKGRFTISRDNSKNTLYLQMNSLRAEDTAVYYCARHYPREYQLPGSFDPWGQGTLVTVSS VL: DIQMTQSPSSLSASVGDRVTITCRASQGISNYLAWYQQKPGKVPKLLIYPASTLQSGVPSRFSGSGSGTDFTLTISSLQPEDFATYYCQQADSFPPTFGGGTTVEIRR | no binding (tested: 2 µg/ml) | no binding (tested: 2 µg/ml) | 2.2 fold over background
3 | C01 (antibody, human IgG4, V domains shown, whole human IgG4) VH: EVQLLESGGGLVQPGGSLRLSCAASGFTFSNYGMSWVRQAPGKGLEWVSVIGPSGGITMYADSVKGRFTISRDNSKNTLYLQMNSLRAEDTAVYYCATGSSSGWYPNFDYWGQGTLVTVSS VL: DIQMTQSPSTLSASVGDRVTITCRASQSIGNWLAWYQQKPGEAPHLLIYQASSLEGGVPSRFSGSGSGTKFTLNISSLQPDDFATYYCQQYNSYSYTFGQGTKLDIKR | no binding (tested: 2 µg/ml) | no binding (tested: 2 µg/ml) | 2.8 fold over background
4 | C10 (antibody, human IgG4, V domains shown, whole human IgG4) VH: EVQLLESGGGLVQPGGSLRLSCAASGFTFSVYVMMWVRQAPGKGLEWVSGIVPSGGKTHYADSVKGRFTISRDNSKNTLYLQMNSLRAEDTAVYYCARPDYGGNSRPLEYWGQGTLVTVSS VL: QSELTQPASVSGSPGQSITISCTGTSSDVGSYNLVSWYQQHPGKAPKLMIYEGSKRPSGVSNRFSGSKSGNTASLTISGLQAEDEADYYCCSYAGSSTYVFGTGTKVTVLG | no binding (tested: 2 µg/ml) | no binding (tested: 2 µg/ml) | 3.41 fold over background
5 | A03 (antibody, human IgG4, V domains shown, whole human IgG4) VH: EVQLLESGGGLVQPGGSLRLSCAASGFTFSIYSMDWVRQAPGKGLEWVSSIYSSGGATRYADSVKGRFTISRDNSKNTLYLQMNSLRAEDTAVYYCARCSWLQLVPMHPWGQGTLVTVSS VL: QSALTQPPSASGTPGQRVTISCSGGSSNIGSNFVYWYRQLPGTAPKLLIYRNYQRPSGVPDRFSGSKSGTSASLAISGLLSEDEADYYCAAWDDNVGGVFGSGTKVTVLG | no binding (tested: 2 µg/ml) | no binding (tested: 2 µg/ml) | 3.54 fold over background
6 | C09 (antibody, human IgG4, V domains shown, whole human IgG4) VH: EVQLLESGGGLVQPGGSLRLSCAASGFTFSQYFMNWVRQAPGKGLEWVSYISGGRTPYADSVKGRFTISRDNSKNTLYLQMNSLRAEDTAVYYCAILLGPSSSNHPFLGPWGQGTLVTVSS VL: DIQMTQSPGTLSLSPGERATLSCRASQSVSSTYLAWYQQKPGQAPRLLISGASSRATGIPDRFSGSGSGTDFTLTISRLEPEDFAVYYCQQYGSSPYTFGQGTKLEIKR | no binding (tested: 2 µg/ml) | no binding (tested: 2 µg/ml) | 3.4 fold over background
7 | C05 (antibody, human IgG4, V domains shown, whole human IgG4) VH: EVQLLESGGGLVQPGGSLRLSCAASGFTFSSYQMDWVRQAPGKGLEWVSRIVPSGGDTTYADSVKGRFTISRDNSKNTLYLQMNSLRAEDTAVYYCARHVYYDSSDYFPNPFDYWGQGTLVTVSS VL: QSELTQPPSVSGTPGQRVTISCSGSSSNIGSEYVYWFQQLPGTAPRLLIYRNDQRPSGVPDRFSGSKSGTSASLAISGLRSEDETDYYCTTWDDSLSGPVFGGGTKLTVLG | no binding (tested: 2 µg/ml) | no binding (tested: 2 µg/ml) | 3.6 fold over background
8 | C07 (antibody, human IgG4, V domains shown, whole human IgG4) VH: EVQLLESGGGLVQPGGSLRLSCAASGFTFSYYVMMWVRQAPGKGLEWVSVIRPSGGITTYADSVKGRFTISRDNSKNTLYLQTNSLRAEDTAVYYCAKIDYGGNSFYFDYWGQGTLVTVSS VL: DIQMTQSPSSLSASVGDRVTITCRASQSISNYLNWYQQRPGKAPKLLIYAASSLERGVPSRFSGSGSGTDFTLTISSLQSEDFATYYCQQSYSPPPLTFGGGTKLEIKR | no binding (tested: 2 µg/ml) | no binding (tested: 2 µg/ml) | 3.12 fold over background
9 | B11 (antibody, human IgG4, V domains shown, whole human IgG4; the VHC entry has one unread residue (printed z, K75z)) VH: EVQLLESGGGLVQPGGSLRLSCAASGFTFSPYFMFWVRQAPGKGLEWVSSIGSSGGDTSYADSVKGRFTISRDNSZNTLYLQMNSLRAEDTAVYYCARGLYRWGQGTLVTVSS VL: QSELTQPPSVSLAPGQTARITCGGNNIGTKSVHWYQQKPGQAPVLVVYDDSDRPSGIPERFSGSNSGNTATLTISRVEAGDEADYYCQVWDSGSDHQVFGGGTKLTVLG | no binding (tested: 2 µg/ml) | no binding (tested: 2 µg/ml) | 3.13 fold over background
10 | B12 (antibody, human IgG4, V domains shown, whole human IgG4) VH: EVQLLESGGGLVQPGGSLRLSCAASGFTFSLYVMYWVRQAPGKGLEWVSYISSSGGITHYADSVKGRFTISRDNSKNTLYLQMNSLRAEDTAVYYCARGSIVVVPAAIRSNNWFDPWGQGTLVTVSS VL: QSALTQPPSVSVAPGQTARISCGGDNIDTKNVQWYQQRPGQAPVLVVYDNSDRPSAIPERFSGSNSGTTATLTISRVEAGDEADYYCQVFDGRSDHPVFGGGTKLTV | no binding (tested: 2 µg/ml) | no binding (tested: 2 µg/ml) | 2.83 fold over background
11 | C03 (antibody, human IgG4, V domains shown, whole human IgG4) VH: EVQLLESGGGLVQPGGSLRLSCAASGFTFSLYMMKWVRQAPGKGLEWVSVISSSGGYTQYADSVKGRFTISRDNSKNTLYLQMNNLRAEDTAVYYCARGWDVWGKGTTVTVSS VL: QSALTQPPSASGTPGQRVTISCSGSNSNIGGNIVIWLQQLPGTAPKLMIYDVSDRPSGVPDRFSGSKSGTSASLAISGLQSEDEADYYCAAWDDSLNGWVFGGGTKLTVLS | no binding (tested: 2 µg/ml) | no binding (tested: 2 µg/ml) | 4.1 fold over background
12 | C08 (antibody, human IgG4, V domains shown, whole human IgG4) VH: EVQLLESGGGLVQPGGSLRLSCAASGFTFSYYEMMWVRQAPGKGLEWVSSISPSGGPTMYADSVKGRFTISRDNSKNTLYLQMNSLRAEDTGVYYCARKMGRVGYCSSTSCYRDDYYGMDVWGQGTTVTVSS VL: DIQMTQSPPSLSALVGDRVTITCRASQSISRYVNWYQQKPGKAPKVLIYAASIVENGVPSRFSGSGSGTDFSLTISSLQPEDFATYYCQQTYSTPLTFGGGTKLAIKR | no binding (tested: 2 µg/ml) | no binding (tested: 2 µg/ml) | 3.4 fold over background

Source: patent US7514534 (DYAX, dated 2009)
